In patent US20170362322A1 (published 2017):
Residue numbers refer to the chain shown, from its start. Like-named read-outs stand apart in the source and are kept apart here.

Key:
B7-H3 [1] = molecular target: T1, B7-H3 (human); assay: competition ELISA (phage)
T1 chain: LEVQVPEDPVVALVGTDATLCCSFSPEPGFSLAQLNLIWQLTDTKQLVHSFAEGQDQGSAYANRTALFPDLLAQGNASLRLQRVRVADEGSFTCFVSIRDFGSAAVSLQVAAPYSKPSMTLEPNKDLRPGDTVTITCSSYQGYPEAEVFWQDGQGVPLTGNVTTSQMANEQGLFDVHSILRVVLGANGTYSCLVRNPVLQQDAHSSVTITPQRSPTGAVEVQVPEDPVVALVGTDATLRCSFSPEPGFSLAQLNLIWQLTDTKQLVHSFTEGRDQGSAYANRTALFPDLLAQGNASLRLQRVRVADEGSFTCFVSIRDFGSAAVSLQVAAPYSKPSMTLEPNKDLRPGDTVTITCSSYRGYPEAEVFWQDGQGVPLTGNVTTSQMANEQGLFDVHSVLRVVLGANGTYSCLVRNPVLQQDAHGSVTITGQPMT

B7-H3 [2] = molecular target: T1, B7-H3; assay: competition ELISA (phage)
B7-H3 [3] = molecular target: T1, B7-H3; assay: Octet BLI; conc. 25 nM
B7-H3 [4] = molecular target: T1, B7-H3; assay: Octet BLI; conc. 50 nM
B7-H3 [5] = molecular target: T1, B7-H3; assay: Octet BLI; conc. 100 nM
B7-H3 [6] = molecular target: T1, B7-H3; assay: Octet BLI; conc. 1.56 nM
B7-H3 [7] = molecular target: T1, B7-H3; assay: Octet BLI; conc. 12.5 nM
B7-H3 [8] = molecular target: T1, B7-H3; assay: Octet BLI; conc. 3.13 nM
B7-H3 [9] = molecular target: T1, B7-H3; assay: Octet BLI; conc. 6.25 nM

B1: 2-8 (antibody, V domains shown)
VH: QVQLQQSGAEVKKPGASVKVSCKASGYTFTNYDINWVRQAPGQGLEWIGWIFPGDGSTQYNEKFKGRATLTTDTSTSTAYMELSSLRSEDTAVYFCARQTTGTWFAYWGQGTLVTVSS
VL: DIVLTQSPATLSLSPGERATLSCRASQSISEYLHWYQQKPGQAPRLLIKHASQSISGIPARFSGSGSGSDFTLTISSLEPEDFAVYYCQNGHSFPLTFGGGTKVEIKR
IC50 (B7-H3 [1]): 11.4 nM

B2: 2-5 (antibody, V domains shown)
VH: B1 VH with G102S
VL: B1 VL with S28I, E31D, H50Y, S54L
IC50 (B7-H3 [1]): 85 nM

B3: 1-5 (antibody, V domains shown)
VH: B1 VH
VL: B1 VL with E31H, H50Y, I55L
IC50 (B7-H3 [2]): 5.1 nM

B4: 8 (2-8Ig) (antibody, V domains shown)
VH: B1 VH
VL: B1 VL
Kd (B7-H3 [3]): 0.0309 nM
Kd (B7-H3 [4]): 0.0401 nM
Kd (B7-H3 [5]): 0.0884 nM
Kd (B7-H3 [6]): 0.0135 nM
Kd (B7-H3 [7]): 0.0234 nM
Kd (B7-H3 [8]): 0.0218 nM
Kd (B7-H3 [9]): 0.0179 nM

B5: 1-7 (antibody, V domains shown)
VH: B1 VH with F29Y
VL: B1 VL with E31P
IC50 (B7-H3 [2]): 5.6 nM

B6: 1-4 (antibody, V domains shown)
VH: B1 VH with E62P
VL: B1 VL with E31T, H50E
IC50 (B7-H3 [2]): 5.6 nM

B7: 1-1 (antibody, V domains shown)
VH: B1 VH with E62G
VL: B1 VL with E31P, H50Y, I55W
IC50 (B7-H3 [2]): 8.8 nM

B8: 1-2 (antibody, V domains shown)
VH: B1 VH with K63T
VL: B1 VL with E31K, H50Y, S52N, S56R
IC50 (B7-H3 [2]): 10 nM
